Experimental data reported in paper PMC4954732, “Sterol Biosynthesis and Azole Tolerance Is Governed by the Opposing Actions of SrbA and the CCAAT Binding Complex”.

Target: T1, SrbA bHLHZ (Aspergillus fumigatus, UniProt Q4WIN1 161-267)
T1 sequence: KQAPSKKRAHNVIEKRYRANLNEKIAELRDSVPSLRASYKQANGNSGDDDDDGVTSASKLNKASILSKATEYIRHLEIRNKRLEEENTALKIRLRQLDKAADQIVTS
Assay: SPR; apparent Kd; Rmax 197.6, two homodimers proposed; SPR on immobilised biotinylated duplexes, 1:1 model with mass transport; buffer, salt, pH and temperature not stated (protocols of refs 19, 54)
Details: protein: recombinant; chain copies: 2; label: 5' biotin on strand 1; blunt

B1: SRE1+SRE2 (cyp51Ap-320-32) (dsDNA)
DNA 1: AGAATCACGCGGTCCGGATGTGTGCTGAGCCG
DNA 2: CGGCTCAGCACACATCCGGACCGCGTGATTCT
**Q.** Which Kd does the source give for B1 here?
**A.** 22 nM
